Among the targets are A3B-CTD P206G (Homo sapiens, UniProt Q9UH17 187-382, E255A;P206G); A3B-CTD R211A (Homo sapiens, UniProt Q9UH17 187-382, E255A;R211A); A3B-CTD Y315F (Homo sapiens, UniProt Q9UH17 187-382, E255A;Y315F).
Holding throughout (experiment): fluorescence anisotropy
Series [1] addresses T1, A3B-CTD E255A (inactive, 'WT') (Homo sapiens, UniProt Q9UH17 187-382, E255A).
Series [2] has as its target T1, A3B-CTD E255A (inactive, 'WT'). This is another data set of the same source.

Results on 3 molecules are retold here after publication PMC6698902.

T1 sequence (Q9UH17 187-382 E255A): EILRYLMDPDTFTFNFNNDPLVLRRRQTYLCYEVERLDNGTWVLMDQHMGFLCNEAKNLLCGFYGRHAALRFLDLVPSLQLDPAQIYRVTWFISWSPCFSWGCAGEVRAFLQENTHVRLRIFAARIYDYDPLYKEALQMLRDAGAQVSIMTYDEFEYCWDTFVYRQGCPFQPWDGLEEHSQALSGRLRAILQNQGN
Sequence of A3B-CTD R211A (Q9UH17 187-382 R211A/E255A): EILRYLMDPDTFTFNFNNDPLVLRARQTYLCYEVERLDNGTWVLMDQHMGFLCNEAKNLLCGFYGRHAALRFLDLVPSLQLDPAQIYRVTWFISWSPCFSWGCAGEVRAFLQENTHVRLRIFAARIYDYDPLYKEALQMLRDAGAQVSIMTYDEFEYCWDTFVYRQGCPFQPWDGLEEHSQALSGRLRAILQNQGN
Sequence of A3B-CTD P206G (Q9UH17 187-382 P206G/E255A): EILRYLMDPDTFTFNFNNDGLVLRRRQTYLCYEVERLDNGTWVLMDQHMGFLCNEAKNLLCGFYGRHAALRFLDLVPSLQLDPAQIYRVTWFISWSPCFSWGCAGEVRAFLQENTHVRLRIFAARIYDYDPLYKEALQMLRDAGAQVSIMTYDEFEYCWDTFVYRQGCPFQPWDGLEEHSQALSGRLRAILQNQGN
Sequence of A3B-CTD Y315F (Q9UH17 187-382 E255A/Y315F): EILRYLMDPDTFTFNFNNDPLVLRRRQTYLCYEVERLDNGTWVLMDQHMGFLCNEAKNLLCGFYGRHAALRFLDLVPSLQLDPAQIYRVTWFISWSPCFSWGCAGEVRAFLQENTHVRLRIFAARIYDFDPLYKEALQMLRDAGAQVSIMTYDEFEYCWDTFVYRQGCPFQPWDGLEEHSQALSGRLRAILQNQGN

B1: polyA TCG (linear DNA) (ssDNA)
DNA: AAAAAAAATCGAAAA
With B1, binding in series [1] was characterised by a dissociation constant (Kd) of 5.4 µM. In addition, the binding result in the series with A3B-CTD P206G and with A3B-CTD R211A was “no binding” each time.

B2: RNA hairpin (structured_RNA)
RNA: GCCAUCUAUCGAUGG
As for B2, the binding result in series [2] is listed as “no binding”.

B3: DNA hairpin (structured_DNA)
DNA: GCCATCATTCGATGGG
As for B3, in series [1], the equilibrium dissociation constant (Kd) (in general, the free concentration of one partner at which half of the binding sites on the other are occupied at equilibrium, for simple one-to-one binding) worked out at 2 µM. For the same molecule, the binding result was “no binding” with A3B-CTD P206G, “no binding” with A3B-CTD R211A and “binds” with A3B-CTD Y315F.
